PMC5473249

Molecular target: FabXol3 (omalizumab-derived Fab with three point mutations)
Assay: SPR; FabXol3, FabXol or intact omalizumab amine-coupled at low density; IgE-Fc flowed over, 2-fold dilutions from 100 nM; 20 mM HEPES pH 7.4, 150 mM NaCl, 0.005% P-20; 25 °C; monophasic kinetics at low concentrations

Kd: 1 nM
koff: 0.0008 s⁻¹
kon: 1.2e+06 M⁻¹ s⁻¹
B1: IgE-Fc, P01854 105-427 (domain or fragment)
chain: DIVASRDFTPPTVKILQSSCDGGGHFPPTIQLLCLVSGYTPGTIQITWLEDGQVMDVDLSTASTTQEGELASTQSELTLSQKHWLSDRTYTCQVTYQGHTFEDSTKKCADSNPRGVSAYLSRPSPFDLFIRKSPTITCLVVDLAPSKGTVQLTWSRASGKPVNHSTRKEEKQRNGTLTVTSTLPVGTRDWIEGETYQCRVTHPHLPRALMRSTTKTSGPRAAPEVYAFATPEWPGSRDKRTLACLIQNFMPEDISVQWLHNEVQLPDARHSTTQPRKTKGSGFFVFSRLEVTRAEWEQKDEFICRAVHEAASPSQTVQRAVSVNPGK
modifications: not checked
